According to paper PMC10611751 (2023):
Like-named read-outs stand apart in the source and are kept apart here. One block for each binder: values may come before it.

What was measured:
Experiment in all cases: ITC
[1] = biological target: T1, Ankyrin-G 24 ANK repeats (residues 38-855) (UniProt O70511 38-855)
T1 chain: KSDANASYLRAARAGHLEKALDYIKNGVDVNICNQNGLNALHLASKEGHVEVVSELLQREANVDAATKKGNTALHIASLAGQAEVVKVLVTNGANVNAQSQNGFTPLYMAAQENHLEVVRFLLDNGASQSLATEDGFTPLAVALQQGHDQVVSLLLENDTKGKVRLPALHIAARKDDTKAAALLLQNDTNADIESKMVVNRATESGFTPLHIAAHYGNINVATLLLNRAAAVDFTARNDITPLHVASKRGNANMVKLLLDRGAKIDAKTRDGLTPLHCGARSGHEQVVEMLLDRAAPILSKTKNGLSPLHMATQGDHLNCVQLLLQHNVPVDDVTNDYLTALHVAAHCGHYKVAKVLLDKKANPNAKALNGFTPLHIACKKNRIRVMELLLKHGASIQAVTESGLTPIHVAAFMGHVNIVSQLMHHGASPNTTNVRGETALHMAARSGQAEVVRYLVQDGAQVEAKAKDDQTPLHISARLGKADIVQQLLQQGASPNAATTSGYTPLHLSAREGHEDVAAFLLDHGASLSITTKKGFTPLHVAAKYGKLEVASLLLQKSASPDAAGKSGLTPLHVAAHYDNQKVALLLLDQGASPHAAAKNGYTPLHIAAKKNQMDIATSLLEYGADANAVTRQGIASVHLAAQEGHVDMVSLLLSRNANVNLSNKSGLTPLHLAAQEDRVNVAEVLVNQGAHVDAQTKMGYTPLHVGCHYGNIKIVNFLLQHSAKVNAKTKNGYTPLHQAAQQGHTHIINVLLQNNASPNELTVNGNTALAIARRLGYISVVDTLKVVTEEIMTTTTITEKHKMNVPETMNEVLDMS

[2] = biological target: E-cadherin CTD site-1, 2, 3 to A (a total of 8 aromatic residue substitutions) (mouse, UniProt P09803 734-884, Y755A | Y756A | Y757A | Y829A | Y837A | Y861A | Y863A | W867A)
[3] = biological target: E-cadherin CTD site-1, 2 to A (mouse, UniProt P09803 734-884, Y755A | Y756A | Y757A | Y829A | Y837A)
[4] = biological target: E-cadherin CTD site-3 to A (mouse, UniProt P09803 734-884, Y861A | Y863A | W867A)
[5] = biological target: E-cadherin CTD site-1 to A (mouse, UniProt P09803 734-884, Y755A | Y756A | Y757A)
[6] = biological target: E-cadherin CTD site-1, 3 to A (mouse, UniProt P09803 734-884, Y755A | Y756A | Y757A | Y861A | Y863A | W867A)
[7] = biological target: E-cadherin CTD site-2, 3 to A (mouse, UniProt P09803 734-884, Y829A | Y837A | Y861A | Y863A | W867A)
[8] = biological target: E-cadherin CTD site-2 to A (mouse, UniProt P09803 734-884, Y829A | Y837A)
[9] = biological target: T1, Ankyrin-G 24 ANK repeats (residues …)
AnkG R6-24 = biological target: T2, AnkG R6-24 (Rattus norvegicus)
T2 chain: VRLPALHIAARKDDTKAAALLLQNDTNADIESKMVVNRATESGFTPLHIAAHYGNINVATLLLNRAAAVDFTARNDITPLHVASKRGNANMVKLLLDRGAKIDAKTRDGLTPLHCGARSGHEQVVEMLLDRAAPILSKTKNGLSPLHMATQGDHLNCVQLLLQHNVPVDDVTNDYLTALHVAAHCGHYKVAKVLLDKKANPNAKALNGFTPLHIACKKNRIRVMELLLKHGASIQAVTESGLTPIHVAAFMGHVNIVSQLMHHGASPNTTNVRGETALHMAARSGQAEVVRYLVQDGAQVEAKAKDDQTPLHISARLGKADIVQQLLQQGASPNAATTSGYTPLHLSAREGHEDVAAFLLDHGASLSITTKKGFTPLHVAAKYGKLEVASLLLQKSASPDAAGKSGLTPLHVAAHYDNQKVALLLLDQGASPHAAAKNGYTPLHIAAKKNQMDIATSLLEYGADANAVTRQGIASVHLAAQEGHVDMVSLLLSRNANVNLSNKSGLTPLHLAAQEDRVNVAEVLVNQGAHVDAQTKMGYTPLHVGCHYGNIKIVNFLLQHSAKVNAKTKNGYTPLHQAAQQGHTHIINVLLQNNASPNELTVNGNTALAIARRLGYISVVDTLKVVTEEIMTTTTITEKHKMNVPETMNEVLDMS

[10] = biological target: T3, Ankyrin-G ANK repeats 8-14 (UniProt O70511 275-500)
T3 chain: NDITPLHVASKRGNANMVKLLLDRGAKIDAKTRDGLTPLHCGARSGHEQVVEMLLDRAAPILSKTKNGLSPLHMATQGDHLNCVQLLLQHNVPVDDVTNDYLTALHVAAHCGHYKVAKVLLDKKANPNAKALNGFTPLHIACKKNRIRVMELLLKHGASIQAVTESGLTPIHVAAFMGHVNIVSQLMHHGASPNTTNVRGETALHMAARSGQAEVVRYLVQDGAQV

- Kd [1]: 3.2 µM
Binder: ESDQDQDADYLNEWGN (domain or fragment) [E-cadherin site-3 Y861A]

- Kd [2]: 8.1 µM
- Kd [3]: 3.6 µM
- Kd [4]: 0.11 µM
- Kd [5]: 0.056 µM
- Kd [6]: 0.098 µM
- Kd [7]: 1.4 µM
- Kd [8]: 4.8 µM
B1: full-length β-catenin 1-781 (natural protein)
chain: MATQADLMELDMAMEPDRKAAVSHWQQQSYLDSGIHSGATTTAPSLSGKGNPEEEDVDTSQVLYEWEQGFSQSFTQEQVADIDGQYAMTRAQRVRAAMFPETLDEGMQIPSTQFDAAHPTNVQRLAEPSQMLKHAVVNLINYQDDAELATRAIPELTKLLNDEDQVVVNKAAVMVHQLSKKEASRHAIMRSPQMVSAIVRTMQNTNDVETARCTAGTLHNLSHHREGLLAIFKSGGIPALVKMLGSPVDSVLFYAITTLHNLLLHQEGAKMAVRLAGGLQKMVALLNKTNVKFLAITTDCLQILAYGNQESKLIILASGGPQALVNIMRTYTYEKLLWTTSRVLKVLSVCSSNKPAIVEAGGMQALGLHLTDPSQRLVQNCLWTLRNLSDAATKQEGMEGLLGTLVQLLGSDDINVVTCAAGILSNLTCNNYKNKMMVCQVGGIEALVRTVLRAGDREDITEPAICALRHLTSRHQEAEMAQNAVRLHYGLPVVVKLLHPPSHWPLIKATVGLIRNLALCPANHAPLREQGAIPRLVQLLVRAHQDTQRRTSMGGTQQQFVEGVRMEEIVEGCTGALHILARDVHNRIVIRGLNTIPLFVQLLYSPIENIQRVAAGVLCELAQDKEAAEAIEAEGATAPLTELLHSRNEGVATYAAAVLFRMSEDKPQDYKKRLSVELTSSLFRTEPMAWNETADLGLDIGAQGEALGYRQDDPSYRSFHSGGYGQDALGMDPMMEHEMGGHHPGADYPVDGLPDLGHAQDLMDGLPPGDSNQLAWFDTDL

- Kd [1]: 4.1 µM
Binder: AYADEEGGGEEDQDFD [E-cadherin 755-770 Y755A,Y757A]

- Kd [9]: 0.8 µM
B2: E-cadherin 776-884 (domain or fragment)
chain: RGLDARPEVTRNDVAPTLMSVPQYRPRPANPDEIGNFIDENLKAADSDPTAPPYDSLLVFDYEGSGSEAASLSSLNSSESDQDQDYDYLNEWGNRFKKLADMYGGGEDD

- Kd [9]: 1.1 µM
B3: E-cadherin 734-838 (protein)
chain: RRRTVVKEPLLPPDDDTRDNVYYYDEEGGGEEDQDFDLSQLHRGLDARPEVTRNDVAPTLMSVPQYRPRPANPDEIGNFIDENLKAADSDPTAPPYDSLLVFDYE

- Kd [1]: 5 µM
Binder: AYYDEEGGGEEDQDFD (domain or fragment) [E-cadherin site-1 Y755A]

- Kd [1]: 4.2 µM
Binder: AAYDEEGGGEEDQDFD [E-cadherin 755-770 Y755A,Y756A]

- Kd [1]: 5.8 µM
Binder: ESDQDQDADALNEWGN [E-cadherin 854-869 Y861A,Y863A]

- Kd (AnkG R6-24): 1.8 µM
- Kd [10]: 8.9 µM
Binder: RDNVYYYDEEGGGEEDQDFDLSQLH (domain or fragment) [E-cadherin 751-775 (site-1)]

- Kd (AnkG R6-24): 1 µM
- Kd [10]: 7.1 µM
B4: E-cadherin 828-869 (containing both site-2 and site-3) (domain or fragment)
chain: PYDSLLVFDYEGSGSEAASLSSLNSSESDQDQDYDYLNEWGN

- Kd [1]: 3.9 µM
Binder: ESDQDQDYDALNEWGN (domain or fragment) [E-cadherin site-3 Y863A]

- Kd [1]: 3.9 µM
Binder: ESDQDQDYDYLNEAGN (domain or fragment) [E-cadherin site-3 W867A]

- Kd [1]: 2.2 µM
Binder: YYADEEGGGEEDQDFD (domain or fragment) [E-cadherin site-1 Y757A]

- Kd [1]: 7.1 µM
Binder: YAADEEGGGEEDQDFD [E-cadherin 755-770 Y756A,Y757A]

- Kd [9]: 1.5 µM
B5: E-cadherin 734-775 (domain or fragment)
chain: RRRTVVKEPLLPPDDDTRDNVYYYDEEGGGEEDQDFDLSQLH

- Kd [1]: 2.2 µM
Binder: YAYDEEGGGEEDQDFD (domain or fragment) [E-cadherin site-1 Y756A]

- Kd [2]: > 50 µM
- Kd [3]: > 70 µM
- Kd [4]: 2.9 µM
- Kd [5]: > 50 µM
- Kd [6]: > 30 µM
- Kd [7]: 1.8 µM
- Kd [8]: 2.8 µM
B6: p120 catenin 324-938 (domain or fragment)
chain: MIGEEVPPDQYYWAPLAQHERGSLASLDSLRKGMPPPSNWRQPELPEVIAMLGFRLDAVKSNAAAYLQHLCYRNDKVKTDVRKLKGIPILVGLLDHPKKEVHLGACGALKNISFGRDQDNKIAIKNCDGVPALVRLLRKARDMDLTEVITGTLWNLSSHDSIKMEIVDHALHALTDEVIIPHSGWEREPNEDCKPRHIEWESVLTNTAGCLRNVSSERSEARRKLRECDGLVDALIFIVQAEIGQKDSDSKLVENCVCLLRNLSYQVHREIPQAERYQEALPTVANSTGPHAASCFGAKKGKDEWFSRGKKPTEDPANDTVDFPKRTSPARGYELLFQPEVVRIYISLLKESKTPAILEASAGAIQNLCAGRWTYGRYIRSALRQEKALSAIAELLTSEHERVVKAASGALRNLAVDARNKELIGKHAIPNLVKNLPGGQQNSSWNFSEDTVVSILNTINEVIAENLEAAKKLRETQGIEKLVLINKSGNRSEKEVRAAALVLQTIWGYKELRKPLEKEGWKKSDFQVNLNNASRSQSSHSYDDSTLPLIDRNQKSDKKPDREEIPMSNMGSNTKSLDNNYSTLNERGDHNRTLDRSGDLGDMEPLKGAPLMQKI

- Kd [1]: 9.5 µM
Binder: PYDSLLVFDAEGSGS (domain or fragment) [E-cadherin site-2 Y837A]

- Kd [1]: 1.7 µM
Binder: PADSLLVFDYEGSGS (domain or fragment) [E-cadherin site-2 Y829A]
